Experimental data published in PMC10513324.
Blank lines part the entries; values can stand above or below the molecule they belong to.

Assays:
[1] = system: GST-Bicc1 WT; assay: GST pull-down, fluorescent RNA; conditions: 100 pmol labeled RNA with 5-10 pmol GST-Bicc1 on glutathione beads, 1 h at 4 C, then HEK293T extract (20 mM Tris-HCl pH 7.4, 2.5 mM MgCl2, 100 mM NaCl, 5% …)
[2] = system: GST-Bicc1 mutD; assay: GST pull-down, fluorescent RNA; conditions: after incubation with ANKS3-Flag HEK293T extract; 100 pmol labeled RNA with 5-10 pmol GST-Bicc1 on glutathione beads, 1 h at 4 C; then HEK293T extract (20 mM Tris-HCl pH 7.4, 2.5 mM MgCl2, 100 mM NaCl, 5% …)
[3] = target: GST-Bicc1 (full-length, WT) (UniProt Q99MQ1); assay: pull-down; full-length GST-Bicc1 (WT or mutD) on glutathione-Sepharose 4B beads, no RNA; HEK293T cell extracts with full-length or truncated ANKS3-Flag; 2 h at 4°C; western blot
[4] = target: GST-Bicc1-KH (complete KH tandem repeat of Bicc1 fused to GST); assay: pull-down; GST fusions of Bicc1 fragments (KH tandem repeat, KH1, KH2, IVS) on glutathione-Sepharose 4B beads; HEK293T cell extracts with ANKS3-Flag (full-length or ΔNter), without v5-ANKS6; 2 h at 4°C; western blot

Chain of UniProt Q99MQ1 (Q99MQ1 whole entry, the tested form may be a part): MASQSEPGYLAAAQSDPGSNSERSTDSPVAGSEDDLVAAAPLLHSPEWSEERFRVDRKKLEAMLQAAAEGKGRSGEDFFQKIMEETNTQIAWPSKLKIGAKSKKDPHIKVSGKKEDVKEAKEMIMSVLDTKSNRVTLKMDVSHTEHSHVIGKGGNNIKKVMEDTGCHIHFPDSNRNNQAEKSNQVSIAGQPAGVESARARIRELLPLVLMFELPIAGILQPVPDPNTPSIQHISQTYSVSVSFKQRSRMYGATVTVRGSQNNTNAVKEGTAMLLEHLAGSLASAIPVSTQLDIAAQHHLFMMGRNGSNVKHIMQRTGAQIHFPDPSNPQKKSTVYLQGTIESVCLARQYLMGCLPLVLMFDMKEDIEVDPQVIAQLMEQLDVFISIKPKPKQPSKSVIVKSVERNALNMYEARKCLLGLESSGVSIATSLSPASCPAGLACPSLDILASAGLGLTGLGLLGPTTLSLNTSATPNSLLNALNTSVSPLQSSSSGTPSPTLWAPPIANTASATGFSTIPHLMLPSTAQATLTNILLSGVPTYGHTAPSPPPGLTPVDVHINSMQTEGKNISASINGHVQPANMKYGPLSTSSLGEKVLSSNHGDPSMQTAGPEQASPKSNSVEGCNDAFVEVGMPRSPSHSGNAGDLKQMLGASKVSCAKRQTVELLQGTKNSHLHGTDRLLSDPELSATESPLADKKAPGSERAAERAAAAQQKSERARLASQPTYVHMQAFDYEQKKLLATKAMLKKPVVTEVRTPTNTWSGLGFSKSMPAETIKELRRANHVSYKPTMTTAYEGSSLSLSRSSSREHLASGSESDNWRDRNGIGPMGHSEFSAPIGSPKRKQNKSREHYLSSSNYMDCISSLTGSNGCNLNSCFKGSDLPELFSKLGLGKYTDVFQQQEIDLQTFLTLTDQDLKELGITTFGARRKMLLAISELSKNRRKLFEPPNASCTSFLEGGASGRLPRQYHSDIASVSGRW

Molecule: Dand5-3'UTR 226-270 RNA
binding signal (% (relative to 66-110 RNA, inferred)) ([1]; with ANKS3-Flag HEK293T extract): 17.2

Molecule: Dand5-3'UTR 66-110 RNA
binding signal (% of RNA bound by WT GST-Bicc1) [2]: 231
binding signal (% (reference)) [1]: 100

percent decrease of binding against full-length ANKS3-Flag [3]: 60%
Molecule: ANKS3 ΔSAM-Flag (from UniProt Q6ZW76 1-656) (domain or fragment)

fold change of binding against full-length ANKS3 [4]: 8 fold
B1: ANKS3 ΔNter-Flag (domain or fragment)
chain: MMDTYSPSLPKSLYRSPEKYEDLSSSDESCPAPQRQRPCRKKGVSIHEGPRALARITGIGLGGRAPRPRYEQAPPRGYVTFNSSGENPLEEEGLCCRDVTSPINERDVESSSSSSSREEHAFCANLGPVQSSSSSEGLARAQGLSSEASVESNEDSDHACKSSARKQAKSYMKTKNPDSQWPPRAATDREGFLAESSPQTQRAPYSGPQDLAALLEQIGCLKYLQVFEEQDVDLRIFLTLTESDLKEIGITLFGPKRKMTSAIARWHSSARPPGDALELAYADRLEAEMQELAIQLHKRCEEVEATRGQVCQEQELRAVVESCLLEQDRAREDLQARLRETWALARDAALVLDQLRACQAELSSRVRQDQPPGAATLGLAVPPADSKGWQASLQAMSLPELSGALEDRVREMGQALCLVTQSLEKLQVLNGKKWRET
